pKd: −log10 of the molar value.
Tested on: CsrA-His6
Assay: EMSA

hmsE RNA 104 nt (GGA2 and GGA3)
pKd: 6.86
